Measurements published in the nanobody polyreactivity screen of Harvey et al. (2022).

Assay: yeast display, Sf9 membrane polyspecificity reagent, FACS + sequencing; frameworks hold sequencing errors
In short: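 In a synthetic yeast display library (Saccharomyces cerevisiae BJ5465), nanobody expression was induced with galactose for 36–48 hours. FACS gates were set low and high (top ~1%) using anti-HA fluorescence for expression and streptavidin fluorescence for binding of the Sf9 membrane reagent. Each polyreactivity label is drawn from the gate of origin.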

Question: With “QVQLVESWAGIVQAGGSLRVSCAASGSTFDRYAMGWYRQAPGKERELVAAISWSAGRTYYADSVKGRFTISRDNAKNTVYLQMNSLKPDDTAVYYCAADQIVSGTYDYYWGQGTHVTVSS” as the sequence, how does the “polyreactivity (PSR sort gate)” value read?
Answer: low polyreactivity

Question: Which “polyreactivity (PSR sort gate)” value does the source give for “QVQLVESWEGLVQAGGRLRLSCAASGSIFRPYTMGWYRQAPGKERELVATISSTGITNYADSVKGRFTISRDNAKITVYLQMNSLKPEVTAVYYCAAGLWFSYDYWGQGTQVTVSS” here?
Answer: high polyreactivity

Question: For “QVQLVESWGGLDQAGGSLRLSCAASGRNLYWNTMGWYRQPPGKETQLVASITQNVGSTYYADSVKGRFTISRDFAKNTVYLQMNSLKPEDTAVYDCAAKRLYWLRYGYWGQGTQDTVSS”, which “polyreactivity (PSR sort gate)” value is on record?
Answer: low polyreactivity

Question: With “QVQLVESWGGLFQAGGSLRLSCAASGSIFVWYAMGRSRQAPGKEMELVAVISYGGDRTSYADSVKGRFTISRDNAKNTVYLQMNSLKPEDTAVYYCAARPFYRGYYYWGQGTQVTVSS” as the sequence, how does the “polyreactivity (PSR sort gate)” value read?
Answer: high polyreactivity

Question: Which “polyreactivity (PSR sort gate)” value does the source give for “QVQLVESWGGLVQAGCSLRLRCAASGRIFGPYAMGWYRQARGQERELVAAISRSGGSTYYADSVKGRFTISRDNAKNTVYLQMKSLNPEDTAVYYCNARFVIYSRVDYWGQGTQVTVSS” here?
Answer: low polyreactivity

Question: Which “polyreactivity (PSR sort gate)” value does the source give for “QVQLVESWGGLVQAGGSLRLSCAASGFTFTWYAMGWSRQAPGKERELLAAITSSGGSTYYADSVKGRFTISRDNAKNTVYLQMNSLKPEDTAVYYCAAKSYWSGYFVGYEYWGQGTQVTVSS” here?
Answer: high polyreactivity

Question: Which “polyreactivity (PSR sort gate)” value does the source give for “QVQLVESWGGLVQAGGSLRLSCAASGGTFSANAMGWYRQAPGKERELVAAISTSGGSTHYADSVKGRFTISRDSAKNTVYLQMNSLNPEDTAVYYCAARLYSYRRQYGYWGHGTQVTVSS” here?
Answer: high polyreactivity

Question: Which “polyreactivity (PSR sort gate)” value does the source give for “QVQLVESWGGLVQAGGSLRLSCAASGINFQNYDMGWYRQAPGKERELVAAINGSGGSTYYADSVKGRFTISRDNANNTVYLQMNSLKPEDTAVYYCNAVWEYYGKSDYWGQGTQVTVSS” here?
Answer: low polyreactivity

Question: Which “polyreactivity (PSR sort gate)” value does the source give for “QVQLVESWGGLVQAGGSLRLSCAASGITFDGYDMGWYRQAPGKERELVATIDSGGITYYADSVKGRFTISRDNAKNTVYLQMNSLKPEDTAVYYCNADEWYYNFDIVEFDYWGQGTQVTVSS” here?
Answer: low polyreactivity

Question: For “QVQLVESWGGLVQAGGSLRLSCAASGLIFYYNAMAWYRQAPGKERELVAAISRRGGGTYYADSVKGRFTISRDNAKNTVYLLMNSLKPEDTAVYYCAAGSPFSPGKYDYWGQGTQVSVSS”, which “polyreactivity (PSR sort gate)” value is on record?
Answer: high polyreactivity

Question: With “QVQLVESWGGLVQAGGSLRLSCAASGLTFETYVMGRYRQAPGKEREFVAAISSSGRTYYADSVKGRFTISRDNAKNTVYLQMNSLKPEDTAFYYCAARGREFGYWGQGTQVTVSS” as the sequence, how does the “polyreactivity (PSR sort gate)” value read?
Answer: high polyreactivity

Question: For “QVQLVESWGGLVQAGGSLRLSCAASGMGRYRQAPGKERELVAAINWSGGNTYYADSVKGRFTISRDNAKNTVYLQMNSLIPEDTAVDYCNAVVWVEVPGDYWGQGTQVTVSS”, which “polyreactivity (PSR sort gate)” value is on record?
Answer: low polyreactivity

Question: For “QVQLVESWGGLVQAGGSLRLSCAASGRIFKRNTMGWNRQAPGKQRELVAAITGSSGSTYYADSVKGRFTNSRDNAKNTVYLQMNSLKPEDTAVYYCNTVRSVYQYWPYNYWGQGTQVTVSS”, which “polyreactivity (PSR sort gate)” value is on record?
Answer: high polyreactivity

Question: With “QVQLVESWGGLVQAGGSLRLSCAASGRIFRGYAMGWYRQAPGKERELVAVISYSGTRTYYADSVKGRFTISRDNAKNTVYLQMNSLKPEDTAVYYCNARANGFKDGYWGQGTQVTVSS” as the sequence, how does the “polyreactivity (PSR sort gate)” value read?
Answer: high polyreactivity

Question: With “QVQLVESWGGLVQAGGSLRLSCAASGRIFVKYAMGWYRQAPGKERELVAAISWIGGSTYYADSVKGRFTISRDNAKNTVYLQMNSLKPEDTAVYYCAAQGKDYEASPGYDGGRNYWGQGTQVTVSS” as the sequence, how does the “polyreactivity (PSR sort gate)” value read?
Answer: low polyreactivity

Question: For “QVQLVESWGGLVQAGGSLRLSCAASGRTFKIYTMGWYRQAPGKERELVAAISRGGSTYYADSVKGRFTISRDNAKNTVYLQMNSLKPEDTAVYYCAVDLYYLSSASTRQVRRDYWGQGTQVTVSS”, which “polyreactivity (PSR sort gate)” value is on record?
Answer: high polyreactivity

Question: Which “polyreactivity (PSR sort gate)” value does the source give for “QVQLVESWGGLVQAGGSLRLSCAASGSIFAINAMGWYRQAPGTERELVAAIRSGGRTYYADSVKGRFTISRDNAKNTVYLQMNSLKPEDTAVYYCNAGGKWIGSDYCGQGTQVTVSS” here?
Answer: high polyreactivity

Question: For “QVQLVESWGGLVQAGGSLRLSCAASGSIFRPYAMGWYRQAPGKERELVAAISSSGGSTYYADSVKGRFTISRDNAKNTVYLQMNSLKPEDTAVYYCAAESRSTWIHSRDYWGQGTQVTVSS”, which “polyreactivity (PSR sort gate)” value is on record?
Answer: low polyreactivity

Question: For “QVQLVESWGGLVQAGGSLRLSCAASGSIFYSNAMGWYSQAPGKERELVAAIRTSAGSTYYADSVKGRFTISRDTAKNTVYLQMNSLKPEDTAVYYCAAVTTYYYYDVSDYAYEFYYWGQGTQVTVSS”, which “polyreactivity (PSR sort gate)” value is on record?
Answer: low polyreactivity

Question: Which “polyreactivity (PSR sort gate)” value does the source give for “QVQLVESWGGLVQAGGSLRLSCAASGSTFDVNAMGWYRQAPGKERELVAAISWNSGSTYYADSVKGRFTISRDNAKNTVYLQMNSLKPEDTAVYYCAARNPFNHPLDYWGQGTQVTVSS” here?
Answer: high polyreactivity

Question: For “QVQLVESWGGLVQAGGSLRLSCAASGSTFQPYAMGWYRQAPGKERELVAAIRSIAGSTYYADSVKGRFTISRDNAKITVYLQMNSLKPEDTAVYYCAADWWRVEMDYWGQGTQVTVSS”, which “polyreactivity (PSR sort gate)” value is on record?
Answer: low polyreactivity

Question: For “QVQLVESWGGLVQAGGSLRLSCAASGSTFVKNAMGWYRQAPGKERELVAAISYRGGRTYYADSVKGRYTISRDNAKNTVYLQMNSLKPEDTAVYYCNARYRTPSFIRMGYWGQGTQVTVSS”, which “polyreactivity (PSR sort gate)” value is on record?
Answer: high polyreactivity

Question: For “QVQLVESWGGLVQAGGSLRLSCAASGSTIDTNTMGWYRQAPGKEREWVAAITWSDASTYADSVKGRFTISRDNAKNTVYFQMNSLKPEDTAVYYCNADWTITVGYDYWGQGTKVTVSS”, which “polyreactivity (PSR sort gate)” value is on record?
Answer: low polyreactivity

Question: Which “polyreactivity (PSR sort gate)” value does the source give for “QVQLVESWGGLVQAGGSLRLSCAASGSTLGNNGMGWYRQAPGKERELVAAIDSTVTTNYADSVKGRFTISRDNAKKSVYLHMNSLKPEDTAVYYCAADYWGQGTQVTVSS” here?
Answer: low polyreactivity

Question: Which “polyreactivity (PSR sort gate)” value does the source give for “QVQLVESWGGLVQAGGSLRLSCADSGRIFLRNTMGWYRQAPGKERELVATISKSAGSTYYADSVKGRFTISRDNAKNSVYLQMNSLKPEDTAVYYCATSRYLKLGYDYWGQGTQVTVSS” here?
Answer: high polyreactivity

Question: With “QVQLVESWGGLVQAGGSLRLSCADSGSTFNVNAMGWYSQAPGKESELVATITESGGRTYYADSVKGRFTISRDYAKNNVYLQMNSLKPEDTAVYYCARGDAWTFDYEPYDYWGQGTQVTVSS” as the sequence, how does the “polyreactivity (PSR sort gate)” value read?
Answer: low polyreactivity

Question: Which “polyreactivity (PSR sort gate)” value does the source give for “QVQLVESWGGLVQAGGSLRLSCASSGITFSPYALGWYRQAPGKERELVAAISSRGGSTYYADSVKGRFTISRDNAKNTVYFQMNSLKPEDTAVFYCNALTFVRYLFHYTYWGQGTQVTVSS” here?
Answer: high polyreactivity

Question: For “QVQLVESWGGLVQEGRSLRLSCAASGYTFQRYNIRWYRPAPGKERELVAAINWSGGSTYYADSVKGRFTISRDNAMNTVYLQMIWLKPEDTAVYYFSRRYRDYGGYGYWGQGTQVSVSS”, which “polyreactivity (PSR sort gate)” value is on record?
Answer: high polyreactivity

Question: Which “polyreactivity (PSR sort gate)” value does the source give for “QVQLVESWGGLVQSGGSLRLISAASGRTYYYYVMGCYRQAPGKERDLVATINSGASTYYADSVKGRFTISRDNAKNTVYLQMNSLNPEDTAVYYCAACVLRRIAGVRYRYGFWGQGTQVTVSS” here?
Answer: high polyreactivity

Question: With “QVQLVETAGGLVQAGASLRLSSAASGITFAYYAMGWYRQAPAKERELVAAISSSGGSTYYADSVKGRFTISRDNAKNTVYLQLNSLNPEDTAVYYCAVDYSYWVEYWGLGTQVTVSS” as the sequence, how does the “polyreactivity (PSR sort gate)” value read?
Answer: high polyreactivity

Question: With “QVQLVETAGGLVQAGGSLRLSSAASGRTFTLNAMGWYRQAPGKERELVATISRRGGSTYYADSVKGRFTISRDNAKNTVYLQMNSLNPEDTAVYYCNAGSSVLKYDYWGQGTEVTVSS” as the sequence, how does the “polyreactivity (PSR sort gate)” value read?
Answer: low polyreactivity

Question: For “QVQLVETGGALVQAGGSLRLSCAASGYTFYRYAMGWYRQATGKERELVAAISYSGGRTYYADSVKGRFTISCDIAKNTVYLQMNSLKPEDTAVYYCNARASYGHQGRLGYARLYYWGQGTQVTVSS”, which “polyreactivity (PSR sort gate)” value is on record?
Answer: high polyreactivity

Question: With “QVQLVETGGCLVQAGGSLRLSCAASGFTFRGYAMGWYRQAPGKERELVAAITAGGGSTSYADSVKGRFTISRDNAKNTVYLLMNSLKPEDTAVYYCAKDRYYGYFRSRSDYWGQGTQVTVSS” as the sequence, how does the “polyreactivity (PSR sort gate)” value read?
Answer: high polyreactivity

Question: For “QVQLVETGGCLVQAGGSLRLSCAASGSTLHYYAMGWSRQAPGKQREFVAGISRYGGRTYNADSVKGRFTISRDNAKNTVYLQMNSLKPEDTAVYYCNAVLVGYRPYREFDHWGQGTQVTVSS”, which “polyreactivity (PSR sort gate)” value is on record?
Answer: high polyreactivity

Question: For “QVQLVETGGGIVQAGGSLRLSCAAYGRILWYYAMGWYRQAPGKERELVAAITSGGSTYYADSVKGRFTLSRDIAKNTVYLQMNSLKPEDTAVYYCNAYYTYRFNYWGQGTQVTVSS”, which “polyreactivity (PSR sort gate)” value is on record?
Answer: high polyreactivity

Question: With “QVQLVETGGGLDQAGGSLRLRCAASGSIFLIYGMGWYRQAPGKERELDAAITARCGSTYYADSVKGRFTISRDNAKNTVYLLMNSLKPEDTAVYYCAADEYEALGKFQPYQFDYWGQGTQVTVSS” as the sequence, how does the “polyreactivity (PSR sort gate)” value read?
Answer: low polyreactivity

Question: With “QVQLVETGGGLDQAGGSLRLSCAASGRTSRYAMGWYRQAPGKEMELVAAISRNGRTTSYADSVKGRFTISRDNAKNTVYLQKNSLKPEDTAVDYCNAYSAFVPPTRGYYWGQGTQVTVTS” as the sequence, how does the “polyreactivity (PSR sort gate)” value read?
Answer: high polyreactivity

Question: For “QVQLVETGGGLFHAGGSLRLSCAASGRIFVGYAMGWYIQAPGKERELVAAINSGGRTNYADSVKGRFTISRYNAKNNVYLQMNSLKPEDTAVYYCAATLRPYSSFPNRYGYWGQGTQVTVSS”, which “polyreactivity (PSR sort gate)” value is on record?
Answer: low polyreactivity

Question: For “QVQLVETGGGLVHAGGSLRISCAASGLTFRGNAMGWYRQAPGKERELVATISSGGITNYADSVKGRFTISRDNAKNTVYLQMNSLKPEDTAVYYCAADWFVHKPRYQNSFDYWGQGTQVTVSS”, which “polyreactivity (PSR sort gate)” value is on record?
Answer: low polyreactivity

Question: For “QVQLVETGGGLVHAGGSLRLSCAASGSIFGYYTMGWYIQAPGKERELFAAITYSGGSTYYADSVKGRFTISRDNAKNTVYLQMNSLKPDDTAVYYCNAKSAAHRYVRRHDYWGQGTQVTVSS”, which “polyreactivity (PSR sort gate)” value is on record?
Answer: low polyreactivity

Question: For “QVQLVETGGGLVKAGGSLRLSCAASGRTFGKYAMGWYRQETGKESELVAAITTRVVITYYADSVKGRFTISRDNAKNTVYLQMNSLKPEDTAVYYCAADPEKNYRPFNHYYYWGQGTQVTVSS”, which “polyreactivity (PSR sort gate)” value is on record?
Answer: low polyreactivity
